Patent publication US20100166772A1 (published 2010)

Key:
[1] = biological target: T1, ORF0657n [375-486] (CNBr fragment of ORF0657t, SDS PAGE band 9) (S. aureus, UniProt A5IS15 375-486); experiment: Western blot of CNBr fragments of ORF0657t, column Western negative, band 9
T1 construct: Limits as printed; also called 13 kDa band

[2] = biological target: T2, ORF0657n [255-375] (CNBr fragment of ORF0657t, SDS PAGE band 9) (S. aureus, UniProt A5IS15 255-375); experiment: as above
T2 construct: Limits as printed; also called 13 kDa band

[3] = biological target: T3, ORF0657n [255-342] (CNBr fragment of ORF0657t, SDS PAGE band 10) (S. aureus, UniProt A5IS15 255-342); experiment: Western blot of CNBr fragments of ORF0657t, column Western negative, band 10
T3 construct: Limits as printed; also called 10 kDa band
T3 sequence: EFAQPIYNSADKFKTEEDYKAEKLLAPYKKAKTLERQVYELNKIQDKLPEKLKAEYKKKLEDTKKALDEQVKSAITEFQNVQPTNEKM

[4] = biological target: T4, ORF0657n [397-486] (CNBr fragment of ORF0657t, SDS PAGE band 10) (S. aureus, UniProt A5IS15 397-486); experiment: as above
T4 construct: Limits as printed; also called 10 kDa band

[5] = biological target: T5, ORF0657n [156-254] (CNBr fragment of ORF0657t, SDS PAGE bands 9 and 10) (S. aureus, UniProt A5IS15 156-254); experiment: Western blot of CNBr fragments of ORF0657t, column Western negative, bands 9 and 10
T5 construct: Limits as printed; also called 13 kDa band; 10 kDa band
T5 sequence: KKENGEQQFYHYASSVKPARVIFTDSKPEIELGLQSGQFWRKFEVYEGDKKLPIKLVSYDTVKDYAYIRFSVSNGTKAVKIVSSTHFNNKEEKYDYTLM

[6] = biological target: ORF0657n on the cell surface of S. aureus (S. aureus, UniProt A5IS15 41-613); experiment: cell-based or functional assay
[7] = biological target: T6, ORF0657n [42-254] (CNBr fragment of ORF0657t, SDS PAGE band 7) (S. aureus, UniProt A5IS15 42-254); experiment: Western blot of CNBr fragments of ORF0657t, column Western negative, band 7
T6 construct: also called 26 kDa band
T6 sequence: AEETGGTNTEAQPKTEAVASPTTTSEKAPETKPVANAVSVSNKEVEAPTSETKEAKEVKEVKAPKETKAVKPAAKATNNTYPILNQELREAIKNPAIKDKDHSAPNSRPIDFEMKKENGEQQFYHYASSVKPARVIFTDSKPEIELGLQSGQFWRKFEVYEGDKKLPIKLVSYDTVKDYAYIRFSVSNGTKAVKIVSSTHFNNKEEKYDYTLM

[8] = biological target: T7, ORF0657n [255-486] (CNBr fragment of ORF0657t, SDS PAGE band 7) (S. aureus, UniProt A5IS15 255-486); experiment: as above
T7 construct: also called 26 kDa band

[9] = biological target: T8, ORF0657n [254-396] (CNBr fragment of ORF0657t, SDS PAGE band 8) (S. aureus, UniProt A5IS15 254-396); experiment: Western blot of CNBr fragments of ORF0657t, column Western negative, band 8
T8 construct: Limits as printed; also called 16 kDa band

[10] = biological target: T9, ORF0657n [254-384] (CNBr fragment of ORF0657t, SDS PAGE band 8) (S. aureus, UniProt A5IS15 254-384); experiment: as above
T9 construct: Limits as printed; also called 16 kDa band

[11] = biological target: T10, ORF0657n [343-486] (CNBr fragment of ORF0657t, SDS PAGE band 8) (S. aureus, UniProt A5IS15 343-486); experiment: as above
T10 construct: Limits as printed; also called 16 kDa band
T10 sequence (A5IS15 343-486): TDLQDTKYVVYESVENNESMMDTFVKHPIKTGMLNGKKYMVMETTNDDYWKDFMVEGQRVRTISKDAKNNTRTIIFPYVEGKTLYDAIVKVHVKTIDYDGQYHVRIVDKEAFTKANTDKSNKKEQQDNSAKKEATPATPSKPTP

T8 sequence (A5IS15 254-396): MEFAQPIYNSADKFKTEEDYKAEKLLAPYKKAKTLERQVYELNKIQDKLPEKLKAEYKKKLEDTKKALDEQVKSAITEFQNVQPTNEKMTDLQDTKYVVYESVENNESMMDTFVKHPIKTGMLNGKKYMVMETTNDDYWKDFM
T9 sequence (A5IS15 254-384): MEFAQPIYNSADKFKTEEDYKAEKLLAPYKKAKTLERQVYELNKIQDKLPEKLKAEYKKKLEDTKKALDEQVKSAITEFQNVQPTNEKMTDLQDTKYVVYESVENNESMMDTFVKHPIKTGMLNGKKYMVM
T1 sequence (A5IS15 375-486): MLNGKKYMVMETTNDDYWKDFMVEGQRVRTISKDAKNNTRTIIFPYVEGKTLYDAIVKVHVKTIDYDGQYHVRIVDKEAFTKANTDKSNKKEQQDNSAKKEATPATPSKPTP
T4 sequence (A5IS15 397-486): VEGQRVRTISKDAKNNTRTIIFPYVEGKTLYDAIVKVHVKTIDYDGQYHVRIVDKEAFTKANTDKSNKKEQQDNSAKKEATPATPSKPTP
ORF0657n on the cell surface of S. aureus, sequence (A5IS15 41-613 limits assumed): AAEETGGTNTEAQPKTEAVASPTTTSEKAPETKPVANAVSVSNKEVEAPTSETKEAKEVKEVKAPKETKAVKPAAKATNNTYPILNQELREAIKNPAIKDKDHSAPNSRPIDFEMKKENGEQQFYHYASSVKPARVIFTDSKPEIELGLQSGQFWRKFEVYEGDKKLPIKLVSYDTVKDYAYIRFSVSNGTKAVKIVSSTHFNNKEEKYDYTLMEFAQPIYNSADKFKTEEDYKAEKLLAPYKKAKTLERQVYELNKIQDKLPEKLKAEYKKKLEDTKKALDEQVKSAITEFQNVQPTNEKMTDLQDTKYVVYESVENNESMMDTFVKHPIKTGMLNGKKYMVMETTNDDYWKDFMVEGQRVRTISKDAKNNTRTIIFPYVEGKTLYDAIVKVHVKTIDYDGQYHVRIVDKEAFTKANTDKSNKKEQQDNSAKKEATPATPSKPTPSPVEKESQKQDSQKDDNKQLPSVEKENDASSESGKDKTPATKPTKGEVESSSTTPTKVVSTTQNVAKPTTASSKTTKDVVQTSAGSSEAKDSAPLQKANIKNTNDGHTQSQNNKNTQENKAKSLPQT

B1: mAb CS-D7 (antibody, human IgG1, kappa, V domains shown)
VH: QVQLQESGPGLVKPSETLSLTCTVSGGSIRSSSYYWGWFRQTPGKGLEWLGNVFFSGSAYYNPSLKNRVTISIDTSENQSSLKLTSVTAADTAVYYCARPQAYSHDSSGHSPFDLWGRGTLVTVSS
VL: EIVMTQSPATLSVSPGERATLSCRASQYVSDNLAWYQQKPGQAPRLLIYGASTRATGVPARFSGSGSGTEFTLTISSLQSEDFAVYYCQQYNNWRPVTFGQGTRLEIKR
notes: also called D7 IgG; full length IgG CS-D7
[1]
  binding result: no binding
[2]
  binding result: no binding
[3]
  binding result: no binding
[4]
  binding result: no binding
[5]
  binding result: no binding
[6]
  EC50 (read off the curve): ~0.02 ug mAb
[7]
  binding result: no binding
[8]
  binding result: no binding
[9]
  binding result: no binding
[10]
  binding result: no binding
[11]
  binding result: no binding
